Assays:
[1] = target: T1, protofibrillar (PF) form of Aβ42 (human); assay: SPR (BIAcore), ratio of PF binding to LMW binding
T1 construct: also called PF Aβ42; protofibril form of Aβ
Procedure: (§1) The purified monoclonal antibodies listed in Table 1 (below), were immobilized to a BIAcore sensor chip in accordance with publish protocols. (Nice, et al. BioEssays 21: 339-352 (1999)). The high sensitivity of the BIAcore optical response quantifies a change in reflectivity and a baseline response for the ligand alone is generated. The interaction analysis is performed as the analytes, the LMW form or the PF form of […], are injected in solution over the sensor chip and the change in surface plasmon resonance generates a response identifying the specificity of each antibody's ability to bind LMW and PF Aβ42. Both the 13C3 and the 19A6 antibodies all bound to the PF form of Aβ 42 with higher specificity than the LMW form.

[2] = target: T1, protofibrillar (PF) form of Aβ42; assay: SPR (BIAcore), ratio of PF binding to LMW binding; remark: listed apart in the source
Procedure: as §1
Automated BIAcore systems, which use the detection principle of Surface Plasmon Resonance, were used in these experiments.

T1 sequence (peptide, as listed by the source): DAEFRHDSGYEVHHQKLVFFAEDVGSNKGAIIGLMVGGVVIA

- Ratio (PF/LMW) [1]: 5
- binding ratio (PF/LMW) [2]: 5.3
B1: monoclonal antibody 13C3 (antibody, IgG1, V domains shown)
VH: QVQLQQSGPELVRPGVSVKISCKGSGYTFTDYAMHWVKQSHAKSLEWIGVISTKYGKTNYNQKFKGKATMTVDKSSSTAYMELARLTSEDSAIYYCARGDDGYSWGQGTSVTVSS
VL: DVVMTQTPLSLPVSLGDQASISCRSGQSLVHSNGNTYLHWYLQKPGQSPKLLIYTVSNRFSGVPDRFSGSGSGSDFTLKISRVEAEDLGVYFCSQNTFVPWTFGGGTKLEIKR
notes: Hybridoma ATCC PTA-8830; also called mAb 13C3; anti-Aβ antibody clone 13C3

Source: patent US20100209422A1 (ROCKEFELLER UNIVERSITY, published 2010)
